In patent US20230057665A1 (Eli Lilly, published 2023):

How the values were obtained:
Human IL-1β [1] = target: T1, Human IL-1β (human, UniProt P01584 117-269); test: cell-based or functional assay
Cyno IL-1β = Cyno IL-1β (cyno, UniProt P79182 117-268); test: cell-based or functional assay
Human IL-1β [2] = target: T1, Human IL-1β; test: MSD-SET (solution equilibrium titration, electrochemiluminescence), 37° C., 72 h equilibrium
Procedure: MSD (Meso Scale Discovery) electrochemiluminescence assay is utilized to measure the affinity of Antibody I, Antibody II, and Canakinumab against human IL-1β. First, the equilibrium mixture of antibodies and human IL-1β is set up; in the mixture the antibody, concentrations are kept constant at 1 pM, 10 pM, and 100 pM whereas the ligand is titrated in the concentration ranging from 0.9 nM to 0.00004 nM (2.5 times dilution between concentrations) The equilibrium mixture is set up in sealed non-binding 96-well plate at 37° C. for 72 hours.
MSD Gold Streptavidin plates are used to detect the free antibodies in the equilibrium mixture. The MSD plates are first blocked with blocking buffer (PBS+1% BSA) for 1 hour on a shaker set at 800 rpm and then washed 3 times with washing buffer PBST (PBS ±0.05% Tween 20). The plates are coated with biotinylated human IL-1p followed by 3× washing with PBST. The equilibrium mixtures are added to the coated plate, incubated at room temperature with shaking for 2.5 mins and immediately washed 3× with PBST. The goat anti-human Sulfo-TAG antibody is added to the plate and incubated at room temperature for 1 hour with shaking. After three more washes, MSD Read Buffer at 1:2 concentration diluted in MilliQ water is added to the wells. immediately afterwards, the plates are read using an MSD Sector Imager 516000 instrument.

B1: Canakinumab (antibody, human IgG4 S228P, kappa, F234A L235A, V domains shown)
VH: QVQLVESGGGVVQPGRSLRLSCAASGFTFSVYGMNWVRQAPGKGLEWVAIIWYDGDNQYYADSVKGRFTISRDNSKNTLYLQMNGLRAEDTAVYYCARDLRTGPFDYWGQGTLVTVSS
VL: EIVLTQSPDFQSVTPKEKVTITCRASQSIGSSLHWYQQKPDQSPKLLIKYASQSFSGVPSRFSGSGSGTDFTLTINSLEAEDAAAYYCHQSSSLPFTFGPGTKVDIKR
Human IL-1β [1]
  Human IL-1β Inhibition IC50 (HEK-Blue IL-1β reporter cells, 4 pM IL-1β): 29.2 pM
Cyno IL-1β
  Cyno IL-1β Inhibition IC50 (HEK-Blue IL-1β reporter cells, 4 pM IL-1β): > 10000 pM
Human IL-1β [2]
  Kd: 0.0131 nM
